Source: paper PMC8196545 (Cell reports, 2021)

B1: c2842 (antibody, V domains shown)
VH: QVQLVQSGAEMKKPGSSVKVSCKASGGSFRSFTVNWVRQAPGQGLEWVGRIIAIFGSVDYAQKFQGRVTISADESTSTFYMDINSLKSEDTAVYYCVRDGLVGGRDFWGQGTQVTVSS
VL: EIVLTQSPGTLSLSPGERATLFCRASQSIKKNYVAWYQQNPGQAPRLLIYGASSRATGTPDRFRGSGSGTDFTLTISRLEPEDFAVYYCQQYGSAQYSFGQGTKLEIK
B2: c8639 (antibody, V domains shown)
VH: LLQLHESGPGLVKPSEALSLTCTVSGASATNGLYWAWIRQPPGKGLEWVASLKKWRGYYNPSLGSRVTISHAPDNQISLRLESVTAADAAVYFCVGFFSSSAFDYWGRGTLVTVSS
VL: AYVLTQPPSVSVAPGKTAKISCEGNNIGQKAVHWYQQKSGQAPVLFISDGTTRTSGIPARFSGSRSGNTATLTISWVEGGDEADYYCQVMSGDTALFGGGTKLTVL
B3: c8567 (antibody, V domains shown)
VH: QQQRVETVKHAVDPGSFLIISCPTSGFTFETYAMHWVRQAPGKGLEWVAATSALGEKKYYSNAVKGRFLITRNNSKRTLYLEMSGLKAEDTAVYYCARSQGYCSDFSCYGYYYYMDVWVKGPTVIVSS
VL: QSVLTQPPSVSAAPGEKVTISCSGNTTNIGNNFVAWYQHLPQNAPKLLIYEDHKRPFGIPDRFSGSKSGTSATLGISGLQTGDEADYYCQTWDAKLLIWIFGGGTKVTVL
B4: c12286 (antibody, V domains shown)
VH: EVHLVESGGGWIHPGMALRLSCAASGFTFEDFAMHWIRQVPGKGLEWVSSITWNGRDTAYADSVKGRFTISRDNAKNSLYLQMNSLRTEDTALYYCVKDSSVSSHYFDSWGQGIMAFVSS
VL: AIQMTQSPSTLSASVGDTVTITCRASQSVSAWLAWYQQKPGKAPKLLIYKASSLQTGVPSRFSGSGSGTEFTLTINSLQPDDFATYSCQQYNFYPWTFGPGTKVEIK
B5: c8549 (antibody, V domains shown)
VH: QVTLKESGPTLLRPADTLTLTCNFSGFSLTTDGVALGWMRQSPGKAPEWLAFLFYDDDKQYNPHLKSRLIISKASSTNQLVLAMTNMGPADAGTYFCARLNVLVHDVPPRNYGLDVWGRGITITVSS
VL: DIVLTQSPVSLSVTPGQSASMSCKSSETLLHEDGKSYLYWYLQKPGQSPQLLIYEASKRFSGVSDRFTASGTGTHFTLQIDRVEVDDVGVYYCMENLKALTFGGGTRMEIK
B6: c10814 (antibody, V domains shown)
V domain 1: EVRLDQSGTEMRKPGTRVRLSCKVSGHTTSDFFVHWVQQAPQRGPQWMGLINVEDENVIYADIFQGRISIVADTSKKTVFLDLTDLTFEETALYFCATHTLQKDTGDYVAAFDSWGQGTLLYVSS
V domain 2: QSVLTQPPSVSAVPGQKVIISCSGRTSNIGTNFVSWYQQFPGAAPKLLIYDNFNRPSGISDRFSASKSDTSATLAITALQAGDEAEYYCGAWDSGLNPAVFVFGSGTRVFVL
B7: c1821 (antibody, V domains shown)
VH: QVQLIQSGAEVKKPGASVKVSCKVSGYTFPEVSMHWVREAPGRGLEWVGGYDPQSAATVYAQRFQGRVTMTEDTSVDTAYMELTSLTSEDTALYFCARSIMIRYGGVIRSFAFDVWGQGTMVIVSS
VL: SSELTQDPAVSVALGQTVTITCQGDSLRQYYATWYQRKPGQAPVLVLSGKNKRFSGIPDRFSGSTSGNSASLTIIGTQAEDEADYYCSSRGSDAYPHYVFGTGTKVTVL
B8: c2718 (antibody, V domains shown)
VH: HVQLQQWGAGLLKPSETLSLTCAVYGESFSVYDWAWIRQSPGKGLEWIGEINHDGGTNYNPSLKSRVTISIDIHLRRFSLSLISVTAADTAIYYCARHIGQLEAFDYWGQGALVTVSS
VL: QSALTQPASVSGSPGQSITISCTGITSDVGDHSYVSWYQQPPGKAPQLIIYDVVNWPPGVSHRFSGSKSGNTASLTITGLRAEDEADYYCASYRRGSSVVFGGGTKVTVL
B9: c7809 (antibody, V domains shown)
VH: QEQRIESVRAAVEPGASLIISCPTSGFDFDRYTMHWVRQAPGKGLEWVAVTSSQGEKKYYSEAVKGRFLITRNNFKRTLYLEMSSLKPEDAGVYYCARSQGYCGTYACYGYYYYMDVWVKGPTVIVSS
VL: QSVLTQPPSVSAAPGEKVAISCSGNTTNIEKNYVAWYQHVPETAPKLLIFENHKRPFGIPDRFSGSKSATSATLGISDLQTADEADYYCQTWDTKLHIWVFGGGTKLTVL
B10: c13173 (antibody, V domains shown)
VH: EVYLMESGGGLVQPGGSLRLSCEVSGLNRTDYWMHWIRQPPGKGLEWVSRIYSHGGGTTYADSVRGRFSLSRDSAKSTLFLEMNSLRVEDTAIYYCLFSEGDFWGPGTLVTVSS
VL: QSALTQPASLSGSPGQSITISCTGNSSDIGKSDYVSWYRQDPGKAPKLLIYDVSSRLSGISDRFSGSKSDNTASLTISGLQAEDEADYYCSSYTNWDTKVFGTGTRVTVL
B11: HC antibody RI5281 (IgG1) (antibody, V domains shown)
VH: QVRLAEFGGGVVRPGESLTLSCATSGFSFTSYGMHWVRQTPGKGLEWVAVIWNDGSRRYYSDSVQGRFTIAKDFANKTLSLQMRDLRVGDTAVYFCARAYGPQSEIDSWGQGILVTVSS
VL: SYGLTQPSSVSVSPGQTAIITCFGNILPRKSAYWYRQTAGRAPTLVIFGDNNRPSGIPARFSGFTAGTVATLVIAATQVDDEGDYYCYSADNSGNHRGVFGGGTKLTVL
B12: HC antibody RI10953 (IgG1) (antibody, V domains shown)
VH: EMRLEESGGALVKPGGSLRLSCVASGFKLSEWSLMWVRQAPGKGLQWVSSISLNQDYISYAGSVRGRFDVFRDRTQTSLLLNMNKLKTEDTGVYFCARVHAWRYFDWVNRRSPVEKVLSIDLWGRGTLVIVSS
VL: SGATQPPSVSVSKGETARITCSGVELSSQYVSWYRQRPGQSPVLVMFHNNSRASRIPERFSASDSGDTATLTIAGAQDVDEAEYYCQTWDSKNYVTFGGGTKLTVL
B13: HC antibody RI808 (IgG1) (antibody, V domains shown)
VH: QIQLRESGPGLVKPSETLTLTCSVSGGSIFPYFYSWIRQPAGKGLEWIGRLFSNSGSVRSNPSMHTRVGFSMDRSRNQVSLTLTSVTAEDTAVYYCVRDIMREYDDINGAGGYYRGVDVWGRGTMVTVSS
VL: NFMLTQPPSVSESPGKTVTISCTRNSGSIASNSVYWYRQRPGSPPTTLIHDNNRRPTGVPDRFSASIDTSSNSASLTISSLKTEDEADYYCQSYDNGNHVIFGGGTNLLVL

target: T1, HIV-1 NL4-3 Env on infected cells (HIV-1 group M subtype B, NL4-3 (pNL4-3 …, strain)); assay: not given

| Binder | binding result |
| --- | --- |
| B1 | binds |
| B2 | binds |
| B3 | binds |
| B4 | binds |
| B5 | binds |
| B6 | binds |
| B7 | binds |
| B8 | binds |
| B9 | binds |
| B10 | binds |

target: T1, HIV-1 NL4-3 Env on infected cells; assay: flow cytometry on cells

| Binder | binding result |
| --- | --- |
| B11 | binds |

target: gp120 JR-CSF (recombinant) (HIV-1, UniProt P20871); assay: ELISA

| Binder | binding result |
| --- | --- |
| B12 | binds |
| B13 | binds |
| B11 | binds |
